According to US20260116991A1 (HAINAN SIMCERE ZAIMING PHARMACEUTICAL, published 2026):

Legend:
human GPC3-His protein [1] = target: T1, human GPC3-His protein (human, UniProt P51654 25-559); experiment: ELISA, coated human GPC3, antibody 100 nM;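 further: antibodies bound to antigen-coated 96-well plates (1 µg/mL), 2 h at 37 °C, detected with HRP-labelled secondary antibody and TMB substrate, absorbance read at 450 nm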
T1 construct: Bought protein; also called human GPC3 protein; not shown: His tag

[2] = target: T2, human GPC3 on CHO-K1-human GPC3 cells (clone CHOK1-hGPC3.2B5) (human, UniProt P51654 25-554); experiment: FACS on CHOK1-hGPC3.2B5 cells;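 further: flow cytometry binding of chimeric antibodies to the cells, read out as mean fluorescence intensity, with the half-maximal concentration derived by curve fitting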
T2 construct: whole, on cells; Stably transfected CHO-K1 clone 2B5

[3] = target: T3, GPC3 endogenously expressed on HepG2 cells (UniProt P51654 25-554); experiment: FACS on HepG2 cells;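 further: flow cytometric binding of chimeric antibodies to cells, read as mean fluorescence intensity, EC50 obtained by curve fitting of the MFI data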
T3 construct: whole, on cells
Description: The desired cells were expanded to a logarithmic growth phase in a T-75 cell culture flask, the medium was removed by pipetting, and the cells were washed twice with a PBS buffer, and digested with trypsin. Then a complete medium was added to stop the digestion, and the cells were blown into a single cell suspension. After counting, the cells were centrifuged, and the cell pellet was resuspended with an FACS buffer (PBS+2% fetal bovine serum) to 2×10⁶ cells/mL. The cell resuspension solution was added to a 96-well FACS reaction plate at 50 μl/well, and a chimeric antibody sample to be tested was added at 50 μl/well for incubation at 4° C. for 1 h. […] After the plate was centrifuged and washed 3 times with a PBS buffer, 100 μl of the resulting solution was assayed and analyzed by FACS (FACS Canto™, purchased from BD Biosciences). Data analysis was performed by software (FlowJo) to obtain the mean fluorescence intensity (MFI) of the cells. Then, analysis was performed by software (GraphPad Prism8), data were fitted, and EC₅₀ values were calculated.

human GPC3-His protein [4] = target: T1, human GPC3-His protein; experiment: ELISA, coated human GPC3, antibody 1 nM;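 further: antigen coated at 1 µg/mL on 96-well plates, antibody bound for 2 h at 37 °C, detected with HRP-labeled secondary antibody and TMB, absorbance read at 450 nm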
Description: (§1) The specific method is described as follows: The antigen protein was diluted with PBS to a final concentration of 1 μg/mL, and the diluent was added to a 96-well ELISA plate at 50 μL/well. The plate was sealed with a plastic film and incubated at 4° C. overnight, washed twice with PBS the next day, and a blocking solution [PBS+2% (w/w) BSA] was added for blocking at room temperature for 2 h. […] After incubation at 37° C. for 2 h, the plate was washed 3 times with PBS. A horseradish peroxidase (HRP)-labeled secondary antibody (purchased from Merck, Cat. No. AP113P) was added for incubation at 37° C. for 1 h, and the plate was washed 5 times with PBS. A TMB substrate was added at 50 μL/well for incubation at room temperature for 10 min, then a stop solution (1.0M HCl) was added at 50 μL/well. An ELISA plate reader (Multimode Plate Reader, EnSight, purchased from Perkin Elmer) was used to read OD_{450 nm} values, with results as shown in Table 4 to Table 6, FIG. 1A, FIG. 1B, and FIG. 1C.

human GPC3-His protein [5] = target: T1, human GPC3-His protein; experiment: ELISA, coated human GPC3, antibody 0.01 nM;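 further: Plate-bound antigen coated at 1 µg/mL, antibody incubated 2 h at 37 °C, binding detected by HRP-conjugated secondary antibody with TMB substrate, read as absorbance at 450 nm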
human GPC3-His protein [6] = target: T1, human GPC3-His protein; experiment: ELISA, coated human GPC3, antibody 10 nM;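 further: plate coated with antigen at 1 µg/mL, antibodies bound 2 h at 37 °C, detected via HRP-conjugated secondary antibody and TMB substrate, absorbance read after acid stop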
Description: as §1

human GPC3-His protein [7] = target: T1, human GPC3-His protein; experiment: ELISA, coated human GPC3, antibody 0.1 nM;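 further: antigen coated on 96-well plates at 1 µg/mL, antibody bound 2 h at 37 °C, detected with HRP-labeled secondary antibody and TMB substrate, acid-stopped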
Description: as §1

human GPC3-His protein [8] = target: T1, human GPC3-His protein; experiment: ELISA, coated human GPC3, antibody 0.001 nM
human GPC3-His protein [9] = target: T1, human GPC3-His protein; experiment: ELISA, coated human GPC3, antibody 0.0001 nM
human GPC3-His protein [10] = target: T4, human GPC3-His protein (human, UniProt P51654 25-559, limits assumed); experiment: SPR, antibody captured on Protein A chip, human GPC3-His injected, 1:1 Langmuir model;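 further: flow cell at 25 °C, antigen injected for 240 s at five twofold dilutions starting at 200 nM, dissociation followed up to 600 s, double-referenced sensorgrams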
T4 construct: also called human GPC3 protein; not shown: His tag

[11] = target: T5, monkey GPC3 on HEK293T-monkey GPC3 cells (monkey); experiment: FACS on HEK293T-monkey GPC3 cells
T5 construct: whole, on cells

Row | Binder | OD450 nm (human GPC3-His protein [1]) | EC50 [2] | Max MFI [2] | EC50 [3] | Max MFI [3] | OD450 nm (human GPC3-His protein [4]) | OD450 nm (human GPC3-His protein [5]) | OD450 nm (human GPC3-His protein [6]) | OD450 nm (human GPC3-His protein [7]) | OD450 nm (human GPC3-His protein [8]) | OD450 nm (human GPC3-His protein [9]) | Kd (human GPC3-His protein [10]) | koff (human GPC3-His protein [10]) | kon (human GPC3-His protein [10]) | EC50 [11] | Max MFI [11]
1 | F1.42.8 human-murine chimeric antibody (antibody, human IgG1, kappa, V domains shown) VH: HVQLQQPGAELVKPGASVKLSCKASGYTFTSYWMHWVRQRPGQGLEWIEMIHPNSGSTNYNEKFKSKATLTVDKSSSTAYMQLSSLTSEDSAVYYCARGNYNSSLYAMDYWGQGTSVTVSS VL: DIQMTQTTSSLSASLGDRVTISCSASQGISNYLNWYQQKPDGTVKLLIYYASNLHSGVPSRFSGSGSGTAYSLTISNLEPEDIATYYCQQYSILPYTFGGGTKLEIKR | 2.56 OD450 | 0.4 nM | 9420 MFI | 0.21 nM | 2090 MFI | 2.02 OD450 | 0.3 OD450 | 2.31 OD450 | 1.22 OD450 | 0.13 OD450 | 0.1 OD450 |  |  |  |  | 
2 | F1.41.17 human-murine chimeric antibody (antibody, human IgG1, kappa, V domains shown) VH: EVQLVESGGDSVKPGGSLKLSCAASGFTFSSYGMSWVRQTPDKRLEWVATINSGGSYTYYQDSVKGRFTISRDNAKNTLYLQMSSLKSEDTAIYYCVRHHYGSSYDYFDYWGQGTTLTVSS VL: DIVMTQAAPSVPVMPGESVSISCRSSKSLLHSNGNTHLYWFLQRPGQSPQLLIYRMSNLASGVPDRFSGSGSGTAFTLRISRVEAEDVGVYYCMQHLEYPLTFGAGTKLELKR | 1.51 OD450 | 0.55 nM | 9930 MFI | 0.2 nM | 1990 MFI | 1.68 OD450 | 0.24 OD450 | 1.59 OD450 | 0.97 OD450 | 0.11 OD450 | 0.08 OD450 |  |  |  |  | 
3 | F1.2.14 human-murine chimeric antibody (antibody, human IgG1, kappa, V domains shown) VH: RVQLQQSGAELVKPGASVRMSCKASGYTFTAYSIEWMKQNLGKSLEWIGNFRPYNDDTKYNENFKGRATLTVEKSSATVYLELSRLTSDDSAVYYCARSGPTDYFDYWGQGTTLIVSS VL: DIQMTQSPASLSASVGETVTITCRASDNIYSYLAWYQQKQGQSPQLLVYNAKTLAEGVPSRFSGSGSVTQFSLKIISLQPEDFGTYYCQHHFGTPRTFGGGTKLEIKR | 1.84 OD450 | 1.67 nM | 8280 MFI | 2.13 nM | 1860 MFI | 1.24 OD450 | 0.17 OD450 | 1.47 OD450 | 0.61 OD450 | 0.1 OD450 | 0.08 OD450 |  |  |  |  | 
4 | F1.21.8 human-murine chimeric antibody (antibody, human IgG1, kappa, V domains shown) VH: EVQLQQSGPELVKPGASVKISCKTSGFLFTGHYMHWVKSSHGNILDWIGYIYPYNAISFYNQKFKGKATLTVDKSSNTAYMELRSLTSEDSAVYYCARGDYGNYVTAYWGQGTLVTVSA VL: DVLMTQTPLSLPVSLGDQASISCRSSQSIVHSSGNTYLEWYLQKPGQSPKLLIYKVSNRFSGVPDRFSGSGSGTDFTLKISRVEAEDLGVYYCFQGSHLPWTFGGGTKLDIKR | 2 OD450 | 0.68 nM | 10700 MFI | 0.36 nM | 2190 MFI | 1.71 OD450 | 0.25 OD450 | 1.7 OD450 | 0.9 OD450 | 0.12 OD450 | 0.08 OD450 |  |  |  |  | 
5 | hAb005LH2L1b (antibody, human IgG1, V domains shown, Humanized F3.54.12) VH: EVQLVQSGAEVKKPGASVKVSCKASGYTFTDYEMHWVRQAPGQGLEWMGAIDPETGNTAYIQKFKGRVTLTTDKSTSTAYMELRSLRSDDTAVYYCTRFYSYSHWGQGTTVTVSS VL: DIVMTQTPLSLPVTPGEPASISCRSSQSLVHSNRNTYLHWYLQKPGQSPQLLIYKVSNRFSGVPDRFSGSGSGTDFTLKISRVEAEDVGVYYCSQNTHVPPTFGGGTKVEIK |  |  |  |  |  |  |  |  |  |  |  | 7.85 nM | 0.00213 s⁻¹ | 271000 M⁻¹ s⁻¹ | 2.42 nM | 22800 MFI
6 | hAb006LH1L1b (antibody, human IgG1, V domains shown, Humanized F3.38.7) VH: EVQLVQSGAEVKKPGSSVKVSCKASGYTFSDYEIHWVRQAPGQGLEWMGAIDPKTGNTAYNQKFMGRVTITADKSTSTAYMELSSLRSEDTAVYYCTRYFSFAYWGQGTLVTVSS VL: DIVMTQTPLSLPVTPGEPASISCRSSQTFVHSNANTYLQWYLQKPGQSPQLLIYKVSNRFSGVPDRFSGSGSGTDFTLKISRVEAEDVGVYYCFQGSHVPYTFGQGTKLEIK |  |  |  |  |  |  |  |  |  |  |  | 7.41 nM | 0.00125 s⁻¹ | 168000 M⁻¹ s⁻¹ | 1.73 nM | 31800 MFI
7 | hAb006LH2L1b (antibody, human IgG1, V domains shown, Humanized F3.38.7) VH: EVQLVQSGAEVKKPGSSVKVSCKASGYTFTDYEIHWVRQAPGQGLEWMGAIDPKTGNTAYNQKFMGRVTITADKSTSTAYMELSSLRSEDTAVYYCTRYFSFAYWGQGTLVTVSS VL: DIVMTQTPLSLPVTPGEPASISCRSSQTFVHSNANTYLQWYLQKPGQSPQLLIYKVSNRFSGVPDRFSGSGSGTDFTLKISRVEAEDVGVYYCFQGSHVPYTFGQGTKLEIK |  |  |  |  |  |  |  |  |  |  |  | 9.28 nM | 0.00128 s⁻¹ | 138000 M⁻¹ s⁻¹ | 1.83 nM | 31500 MFI
8 | hAb006LH3L1b (antibody, human IgG1, V domains shown, Humanized F3.38.7) VH: EVQLVQSGAEVKKPGSSVKVSCKASGYTFTDYEIHWVRQAPGQGLEWMGAIDPKTGNTAYNQKFMGRVTLTADKSTSTAYMELSSLRSEDTAVYYCTRYFSFAYWGQGTLVTVSS VL: DIVMTQTPLSLPVTPGEPASISCRSSQTFVHSNANTYLQWYLQKPGQSPQLLIYKVSNRFSGVPDRFSGSGSGTDFTLKISRVEAEDVGVYYCFQGSHVPYTFGQGTKLEIK |  |  |  |  |  |  |  |  |  |  |  | 8.4 nM | 0.00136 s⁻¹ | 162000 M⁻¹ s⁻¹ | 1.78 nM | 32500 MFI

The remaining lines, values ahead:

Row | OD450 nm (human GPC3-His protein [1]) | EC50 [2] | Max MFI [2] | EC50 [3] | Max MFI [3] | OD450 nm (human GPC3-His protein [4]) | OD450 nm (human GPC3-His protein [5]) | OD450 nm (human GPC3-His protein [6]) | OD450 nm (human GPC3-His protein [7]) | OD450 nm (human GPC3-His protein [8]) | OD450 nm (human GPC3-His protein [9]) | Kd (human GPC3-His protein [10]) | koff (human GPC3-His protein [10]) | kon (human GPC3-His protein [10]) | EC50 [11] | Max MFI [11] | Binder
9 |  |  |  |  |  |  |  |  |  |  |  | 4.28 nM | 0.000397 s⁻¹ | 92700 M⁻¹ s⁻¹ | 8.8 nM | 73600 MFI | hAb007LH1L1c (antibody, human IgG1, V domains shown, Humanized F3.81.19) VH: EVQLVQSGAEVKKPGSSVKVSCKASGYTFSDYEMHWVRQAPGQGLEWMGTIDPETGNTAYNQKFKGRVTITADKSTSTAYMELSSLRSEDTAVYYCTRPYSLTYWGQGTLVTVSS VL: DIVMTQTPLSLPVTPGEPASISCRSSQSFVHSNADTYLQWYLQKPGQSPQLLIYKVSNRFSGVPDRFSGSGSGTDFTLKISRVEAEDVGVYYCFQGSHVPYTFGQGTKLEIK
10 |  |  |  |  |  |  |  |  |  |  |  | 2.21 nM | 0.000228 s⁻¹ | 103000 M⁻¹ s⁻¹ | 12.4 nM | 35400 MFI | hAb007LH1L1b (antibody, human IgG1, V domains shown, Humanized F3.81.19) VH: EVQLVQSGAEVKKPGSSVKVSCKASGYTFSDYEMHWVRQAPGQGLEWMGTIDPETGNTAYNQKFKGRVTITADKSTSTAYMELSSLRSEDTAVYYCTRPYSLTYWGQGTLVTVSS VL: DIVMTQTPLSLPVTPGEPASISCRSSQSFVHSNRDTYLQWYLQKPGQSPQLLIYKVSNRFSGVPDRFSGSGSGTDFTLKISRVEAEDVGVYYCFQGSHVPYTFGQGTKLEIK
11 |  |  |  |  |  |  |  |  |  |  |  | 3.58 nM | 0.000315 s⁻¹ | 88000 M⁻¹ s⁻¹ | 13.2 nM | 35800 MFI | hAb007LH2L1b (antibody, human IgG1, V domains shown, Humanized F3.81.19) VH: EVQLVQSGAEVKKPGSSVKVSCKASGYTFTDYEMHWVRQAPGQGLEWMGTIDPETGNTAYNQKFKGRVTITADKSTSTAYMELSSLRSEDTAVYYCTRPYSLTYWGQGTLVTVSS VL: DIVMTQTPLSLPVTPGEPASISCRSSQSFVHSNRDTYLQWYLQKPGQSPQLLIYKVSNRFSGVPDRFSGSGSGTDFTLKISRVEAEDVGVYYCFQGSHVPYTFGQGTKLEIK
12 |  |  |  |  |  |  |  |  |  |  |  | 4.3 nM | 0.000678 s⁻¹ | 158000 M⁻¹ s⁻¹ | 1.65 nM | 32800 MFI | hAb006LH2L1 (antibody, human IgG1, V domains shown, Humanized F3.38.7) VH: EVQLVQSGAEVKKPGSSVKVSCKASGYTFTDYEIHWVRQAPGQGLEWMGAIDPKTGNTAYNQKFMGRVTITADKSTSTAYMELSSLRSEDTAVYYCTRYFSFAYWGQGTLVTVSS VL: DIVMTQTPLSLPVTPGEPASISCRSSQTFVHSNGNTYLQWYLQKPGQSPQLLIYKVSNRFSGVPDRFSGSGSGTDFTLKISRVEAEDVGVYYCFQGSHVPYTFGQGTKLEIK
13 |  |  |  |  |  |  |  |  |  |  |  | 3.15 nM | 0.001 s⁻¹ | 319000 M⁻¹ s⁻¹ | 4.06 nM | 91600 MFI | hAb006LH3L1c (antibody, human IgG1, V domains shown, Humanized F3.38.7) VH: EVQLVQSGAEVKKPGSSVKVSCKASGYTFTDYEIHWVRQAPGQGLEWMGAIDPKTGNTAYNQKFMGRVTLTADKSTSTAYMELSSLRSEDTAVYYCTRYFSFAYWGQGTLVTVSS VL: DIVMTQTPLSLPVTPGEPASISCRSSQTFVHSNRNTYLQWYLQKPGQSPQLLIYKVSNRFSGVPDRFSGSGSGTDFTLKISRVEAEDVGVYYCFQGSHVPYTFGQGTKLEIK
14 |  |  |  |  |  |  |  |  |  |  |  | 1.05 nM | 0.000114 s⁻¹ | 109000 M⁻¹ s⁻¹ | 4.1 nM | 36300 MFI | hAb007LH1L1 (antibody, human IgG1, V domains shown, Humanized F3.81.19) VH: EVQLVQSGAEVKKPGSSVKVSCKASGYTFSDYEMHWVRQAPGQGLEWMGTIDPETGNTAYNQKFKGRVTITADKSTSTAYMELSSLRSEDTAVYYCTRPYSLTYWGQGTLVTVSS VL: DIVMTQTPLSLPVTPGEPASISCRSSQSFVHSNGDTYLQWYLQKPGQSPQLLIYKVSNRFSGVPDRFSGSGSGTDFTLKISRVEAEDVGVYYCFQGSHVPYTFGQGTKLEIK
